From PMC11980541, “3D meshwork architecture of the outer coat protein CotE: implications for bacterial endospore sporulation and germination” (mBio, 2025) come the findings set out here.

Bounds are passed on as bounds.

Assay [1] addresses CotE (outer coat protein CotE). The conditions noted are these: PBS pH 7.2, 25 °C; 100 µM protein in cell, 1 mM DPA in syringe; C-terminal His-tagged trimeric mutant.
Assay [2] addresses W65E variant CotE protein, C-terminal His-tagged (Bacillus cereus). Kind of assay: SEC-MALS; Superdex 75 Increase 10/300 GL, 2 mg/mL protein, 20 mM Tris pH 8.0. On the technique in general: In gel filtration, larger molecules generally elute earlier.
Assay [3] addresses wild-type CotE protein from Bacillus cereus (Bacillus cereus). Kind of assay: SEC; Superdex 200 Increase 10/300 GL, 20 mM Tris-HCl pH 8.0 with 5 mM CaCl2; CotE 5 mg/mL; apparent molecular weight from a calibration curve.
The target is the same in assay [4]. Kind of assay: cryo-EM structure; CotE 2 mg/mL with 5 mM CaCl2 (meshwork); C3 map of the trimer unit at 6.55 Å and C2 map of two joined trimers at 6.86 Å; AlphaFold2 trimer models fitted.
The target is the same in assay [5]. Kind of assay: SEC; Superdex 200 Increase 10/300 GL, 20 mM Tris-HCl pH 8.0, no CaCl2; CotE 5 mg/mL; apparent molecular weight from a calibration curve.

A word on the Kd: it is the free concentration of one partner at which half of the binding sites on the other are occupied at equilibrium, for simple one-to-one binding. A high value points to lower affinity. On to `O=C(O)c1cccc(C(=O)O)n1` [DPA, dipicolinic acid], for which binding in assay [1] was put at a Kd of 6.3 µM.
The term stoichiometry N denotes the number of molecules, sites or subunits per partner or assembly. Consider “W65E variant CotE protein, C-terminal His-tagged (natural protein)”, for which, in assay [2], the stoichiometry N came to 3.
As for “wild-type CotE protein from Bacillus cereus (natural protein)”, the figures for the stoichiometry N in assay [3], in assay [4] and in assay [5] were more than 100, 3 and 12, respectively.
